This is an account of results in the DeepSol protein solubility set.

The data set is described as follows: soluble on expression in E. coli; label from the status in PepcDB or PDB records.
In the case of “MSIVNILSVNVLNNPAKFSDPYKFEITFECLEPLKSDLEWKLTYVGSATSQSYDQILDTLLVGPIPIGINKFVFEADPPNIDLLPQLSDVLGVTVILLSCAYEDNEFVRVGYYVNNEMEGLNLQEMDDAEIKKVKVDISKVWRSILAEKPRVTRFNIQWDN”, the “soluble on expression in E. coli” value is reported as “soluble”.

For the sequence “SSTIGSFEGFQAVSLKQEGDDQPSETDHLSMEEEDPMPRQISRQSSVTESTLYPNPYHQPYISRKYFATRPGAIETAMEDLKGHVAETSGETIQGFWLLTKIDHWNNEKERILLVTDKTLLICKYDFIMLSCVQLQRIPLSAVYRICLGKFTFPGMSLDKRQGEGLRIYWGSPEEQSLLSRWNPWSTEVPYATFTEHPMKYTSEKFLEICKLSGFMSKLVPAIQNAHKNSTGSGRGKKLMVLTEPILIETYTGLMSFIGNRNKLGYSLARGSIGF”, the “soluble on expression in E. coli” value is given as “soluble”.

“LIIGVTGCPAGIAHTYLAAEALEKGAAALGFEIKVETNGSIGVKNSPSAEEIERAEAIVVACDKQVDMARFAGKRLIKTNVKAPIRDAQKLINEALRAPTY”: the “soluble on expression in E. coli” value is on record as “not soluble”.

Turning to “VFNSDAPLETTIKGMKTVMLGYDCRMSQQSPAYLERIVKDVKKYKKEDTLVIVNMHWGVEYRETPTNYQTQFGHAILDAGADIIMGAHPHRLESIEKYKDKYIVYSMGDFAFGADPTLLSRMTSMFQLRFTKEA”, the “soluble on expression in E. coli” value is on record as “not soluble”. For the sequence “MSLKHLTEMVRQHKAGKTNGIYAVCSAHPLVLEAAIRYASANQTPLLIEATSNQVDQFGGYTGMTPADFRGFVCQLADSLNFPQDALILGGDHLGPNRWQNLPAAQAMANADDLIKSYVAAGFKKIHLDCSMSCQDDPIPLTDDIVAERAARLAKVAEETCLEHFGEADLEYVIGTEVPVPGGAHETLSELAVTTPDAARATLEAHRHAFEKQGLNAIWPRIIALVVQPGVEFDHTNVIDYQPAKASALSQMVENYETLIFEAHSTDYQTPQSLRQLVIDHFAILKVGPALTFALREALFSLAAIEEELVPAKACSGLRQVLEDVMLDRPEYWQSHYHGDGNARRLARGYSYSDRVRYYWPDSQIDDAFAHLVRNLADSPIPLPLISQYLPLQYVKVRSGELQPTPRELIINHIQDILAQYHTACEGQEGHHHHHH”, the “soluble on expression in E. coli” value was “soluble”. Take “MQVASRVKARRLEMNLTQEGIALRAGMKLPTYRRFERTGEISFRGLLQIGFALNALQDFALLFDQRLYQTLDEVLAEQQPKRKRGSKK”: the “soluble on expression in E. coli” value is given as “not soluble”. With “SLTASIVYLNNVRLETGFAKDHHELTYTKTARYTLAIQEGKIQAIIPQNQVTEKQQGTDLNGQLAIPAFQESHNHLDKTYLSLGWRASQPVKNLKERLADEASELKLLAPSTEQRATAMIEKLIGYGASYIRTHVNIDPYVELENFWGVKRALEKYAHVIDYDIVVFPQHGLLKNPQTVLLMREALKNGGTMVGGLDPAGIDYAIEESLETIFDLAEEFQVGIDIHLHDTGEVGVYTIDKFLDILEERKFTQRTAISHAFALLDVRPAEKEKLYQRLATHQTAIMSTIPYDPRYLLPPIDVLRQAGVSVHLGSDGFFDSWSSNVSGDLFEKLRNFCEMTGKITEEQLTQAYVHGCGKVAPFSFEEERLWFTEGDEANFIFTEAASTAEVIARKPQKRQIMLKGQWV”, the “soluble on expression in E. coli” value is on record as “soluble”. The same measure for “MAQASPPRPERVLGASSPEARPAQEALLLPTGVFQVAEKMEKRTCALCPKDVEYNVLYFAQSENIAAHENCLLYSSGLVECEDQDPLNPDRSFDVESVKKEIQRGRKLKCKFCHKRGATVGCDLKNCNKNYHFFCAKKDDAVPQSDGVRGIYKLLCQQHAQFPIIAQSAKFSGVKRKRGRKKPLSGNHVQPPETMKCNTFIRQVKEEHGRHTDATVKVPFLKKCKEAGLLNYLLEEILDKVHSIPEKLMDETTSESDYEEIGSALFDCRLFEDTFVNFQAAIEKKIHASQQRWQQLKEEIELLQDLKQTLCSFQENRDLMSSSTSISSLSY”: “not soluble”; for “MGHHHHHHSHDFIPRGAFGKVYLAQDIKTKKRMACKLIPVDQFKPSDVEIQACFRHENIAELYGAVLWGETVHLFMEAGEGGSVLEKLESCGPMREFEIIWVTKHVLKGLDFLHSKKVIHH”: “not soluble”. Next, “MDTTPEPFTGKMGSYILIAPDGDAAMIDSGPKTSWERVREELQSMGVRLRYVILTHIHLDHASAAGSIVRSLDTVEAVYVHPRGARHMADPERLWQASKQFLGDYADFFGKPEPVPEGKIVVPEDGEVLELPGGVKLHVIYTPGHASHHMSFYLPQEGVMFTGDSAGVSLKDDDGTLVEFPTTPPPFKPVEYINSLDAMARFKPEKLAFAHYGMRSGGMEYLRWHREDILRWVREAVEYVSRGGGDAEELMRLLADKLENAGKAYRARNPIISEFMYRGTVLGLMDTAVRGEWKRLHL”: “soluble”; “MLNTHSCIFHRGVNGSEPLLPVVNGVNICGNPRIISCCLLPLVNPCKPMSTGFDFVAIKKSRTFTAIEIRHKNMRKMAEQQIRCAKC”: “not soluble”. In the case of “MKKYTEMTKDELMQEKTALEAEYEKIKNLGLSLDMSRGKPGADQLDLSLPMLDVLKSDSDMKSESGLDVRNYACLDGIPEAKALIAGMVGAKPEQAIVYGNSSLNIMYDQVARAFIFGLCGNTPWCKLDKVKFLCPVPGYDRHFAITEEFGVEMINIPMTEDGPDMDMVEKYVNNDASVKGIWCVPKYSNPQGVVYSDETVERFAKLKPAADDFRIFWDNAYTVHHLYDDKQAEIPNILELCEKEGNPDMVFEFCSTSKVTFPGAGVAGICTSEKNREDIKKRLTIQTIGHDKINQLRHARFFKDVDGIKAHMAKHAALIRPKFELVENILTDEIASRGIGTWVKPLGGYFFGFEALSGCAKEIVAKCKEAGVTMTGAGSPFPYKKDPDDSVIRIAPTYPSLDELKKAAEVFVIVTRLVSVNKLLEA”, the “soluble on expression in E. coli” value is “not soluble”.

For “MSGDRDDPRYPYPKDDAELRRRLTPMQYEVTQHAATEPPFTGEYTDTEDAGIYHCVVCGTALFESGAKYHSGCGWPSYFKPIDGEVIDEKMDYTHGMTRVEVRCNQCGAHLGHVFEDGPRDKTGLRYCINSAALNFEAKPERK”, the “soluble on expression in E. coli” value is “not soluble”. On to “GMELQDTIFKRQSVRKFKNQDVSDEDILKMIKAAGAAPSGKNIQNWHFVVIKRRDLMEKIADVITKKQQEILVEMDKVSVDKANRFRKFVKNFTLFYLKAPVLVLVFTKVYNPSGYYELELIDAPKETIDKLFIRNPGMQSLGAAIENFTLSAIELGYGSCWLTSQNYAADEIEAVLEAETGFEKGEYFLGAMLALGVPEDNLKSPSKKPVEEICTFIK”, for which the “soluble on expression in E. coli” value is “soluble”. As to “MQSFLQLVAHDLYAKIGNDLSRTVLVFPNKRANLFFNEHLAGESDQPIWSPAAMSISDLFRKLSVQKAGDPIRLVCELYKVFREETESQETLDDFYFWGELLISDFDDVDKNLVDANKLFSNLQDLKNLMDDYEFLDKEQEEAIQQFFQNFSIERRTVLKEKFISLWDKLGTIYHRYRENLAELGIAYEGMLYRNVIEQLDTTRLKYDKYIFVGFNVLNKVETKFFQLLQDADKAMFYWDYDLFYTKQIVKHEAGEFINRNLKLFPNELPESCFDTLRKPKNIRYISASTENAQARFLPEWVQSTLSTANEEKENAVVLCNEALLLPVLHSIPQEVENVNITMGFPLAQTPVYSFINAAMELQTNGYRTATGRFTYETVSAILKHPYTRQLSINAEPLERELTKTNRFYPLPSELKMDDFLIKLFTPRSGIKELCDYLTELIKDISLLYREESEYNDIFNQLYRESLFKSYTTINRLYSLIETGELNVRTDTLRRLVSKVLTASNIPFHGEPAIGMQVMGVLETRNLDFRNIILLSLNEGQLPKSGGDSSFIPYNLRKAFGMTTIEHKNAVYAYYFYRLIQRAENITLLYNTSSNGLNRGEESRFMLQLLVEGPHKITREYLEAGQSPQGTTDISIEKTPEVFERLRCSYDCSNPQSYILSPSALNAYLDCRLKFYYRYVARLKAPDEVSAEIDSALFGTIFHLSAQLAYTDLTANRKIIQKEDLERLLRNEVKLQNYVDLAFKQELFKVPADEKPEYNGVQLINSKVIVSYLKQLLRNDLQYAPFEMVAMEKPVAEKITIQTGQGPITLRLGGTIDRMDAKDTTLRIVDYKTGGSPKTPANIEQLFTPSETRPNYIFQTFLYAAIMSRQQSLKVAPSLLYIHRAASESYSPVIEMGEPRQPKIPVNNFAFFEDEFRERLQRLLKEIFDENEPFTQTEDTKKCAYCDFKAICKR”, the “soluble on expression in E. coli” value is “not soluble”. Turning to “AENDKPQYLSDWWHQSVNVVGSYHTRFGPQIRNDTYLEYEAFAKKDWFDFYGYADAPVFFGGNSDAKGIWNHGSPLFMEIEPRFSIDKLTNTDLSFGPFKEWYFANNYIYDMGRNKDGRQSTWYMGLGTDIDTGLPMSLSMNVYAKYQWQNYGAANENEWDGYRFKIKYFVPITDLWGGQLSYIGFTNFDWGSDLGDDSGNAINGIKTRTNNSIASSHILALNYDHWHYSVVARYWHDGGQWNDDAELNFGNGNFNVRSTGWGGYLVVGYNFHHHHHH”, the “soluble on expression in E. coli” value is “soluble”. Next, “QGLVPQGQTQVLQGGNKVPVVNIADPNSGGVSHNKFQQFNVANPGVVFNNGLTDGVSRIGGALTKNPNLTRQASAILAEVTDTSPSRLAGTLEVYGKGADLIIANPNGISVNGLSTLNASNLTLTTGRPSVNGGRIGLDVQQGTVTIERGGVNATGLGYFDVVARLVKLQGAVSSKQGKPLADIAVVAGANRYDHATRRATPIAAGARGAAAGAYAIDGTAAGAMYGKHITLVSSDSGLGVRQLGSLSSPSAITVSSQGEIALGDATVQRGPLSLKGAGVVSAGKLASGGGAVNVAGGGAV”: “soluble”; “EGIRQGVLKTAQNGNGNLIYLTGGMATVDHGAFHQGKFLTLKMDDSEVVRALPDVKSVAPTAKWKERITVGDRSSWQEPLAVTSEFQSMTNLVPMAGGRWLNPLDQKETRKVVVLGYELAADLFNPNEDFSWFATVTLQVNPVGKKVKIGNEEFTVVGVLEKNSAQIELGDLINYSSFVPLATWKRFHVNGEIGGINVQPQADVDREALAKTIRQVIARKHGASVNDEQVVQVDDMFLKQKSMQQFLIGLQS”: “not soluble”. As for “MTRLTVFKPRSLVSILMFTTVWAVGSASASTLDLEAQRAQYDKAQRWLDEKNVAQYQRIRKQIDSYPLTPYLDYRAFLIDLGSKPPIAVRNFIDSHKEYPFSARIAAPYLDALARSKKWSALLQFQTQLPNGETYQCHYYNAKLQTGKRNEAFEGAKKLWLNGASIADACDPLFAEWDRVGGLSDDWVLKRALLAFEGRNRNLIVYLQKKLDGKKSQAKAQGMLELFDKPERVLAYSRKASQDPINQKLAELALQKWARSEPQEAQAVFNDVAKAQGWNQEQKGRVARFIAIRLMDTEEAAIAKWRDEVTRTSQDVRLIEARIRLALRENDWRGLSQWIAVLPEQERKTLRWQYWQGRSEIALGKKKEGTERLKALLGQRSFYSVAAAKILQQSVNYPTSTVTLDMKQIKAHKKALARIDELIALDKVPAAKSEWRWLLDRVSQKEKEMLAAYAADSGWYQMTIAATISASLWDNNQLRFPVVHQNLFTLHGRKNGVDPITLMSLARQESALNPDAQSPVGARGLMQIMPDTARYTARKYQLSYSNPDELYQVGKNIEIGSRYLSSLLERYDQNRILAFAAYNAGPSRVDSWLKRSQGKLDAYGFIEAIPFAETRGYVQNILMFETYYRDLMGVQGRFLNEHELNTKY”, the “soluble on expression in E. coli” value was “soluble”.

For the sequence “MGSDKIHHHHHHMALRKNRGSRMQRNVIAMTEPKSLNSEQYRTIRTNIEFASVDRQMKSVMITSACPGEGKSTTAANLAVVFAQQGKKVLLIDADLRKPTVHTAFFLENTVGLTSVLLKKSSMEQAVQASNEKHLDVLTSGPIPPNPAELLSSKWMKELAYEACAAYDMVIFDTPPILAVADAQILGNVADGSVLVISSGKTEKEQAAKAKEALATCKSKLLGAIMNGKKLSKHSEYGYYGTKDNFMQK”, the “soluble on expression in E. coli” value is given as “not soluble”. For “ELSYRLLDQIYINPAVILKREEQYIKDFQSYVTEQKLSMNDRKKIKEFTKTDWTIVMALYQENDIIFSSDSRFIVPLPADEYGETIKDTSEASGVFNVTFTDGAVQAALVYTGYENYQS”, the “soluble on expression in E. coli” value was “soluble”.
